Assay results: US20220267751

Key:
[1] = target: T1, native plasminogen glycoform I (purified in-house from human plasma), P00747
T1 chain: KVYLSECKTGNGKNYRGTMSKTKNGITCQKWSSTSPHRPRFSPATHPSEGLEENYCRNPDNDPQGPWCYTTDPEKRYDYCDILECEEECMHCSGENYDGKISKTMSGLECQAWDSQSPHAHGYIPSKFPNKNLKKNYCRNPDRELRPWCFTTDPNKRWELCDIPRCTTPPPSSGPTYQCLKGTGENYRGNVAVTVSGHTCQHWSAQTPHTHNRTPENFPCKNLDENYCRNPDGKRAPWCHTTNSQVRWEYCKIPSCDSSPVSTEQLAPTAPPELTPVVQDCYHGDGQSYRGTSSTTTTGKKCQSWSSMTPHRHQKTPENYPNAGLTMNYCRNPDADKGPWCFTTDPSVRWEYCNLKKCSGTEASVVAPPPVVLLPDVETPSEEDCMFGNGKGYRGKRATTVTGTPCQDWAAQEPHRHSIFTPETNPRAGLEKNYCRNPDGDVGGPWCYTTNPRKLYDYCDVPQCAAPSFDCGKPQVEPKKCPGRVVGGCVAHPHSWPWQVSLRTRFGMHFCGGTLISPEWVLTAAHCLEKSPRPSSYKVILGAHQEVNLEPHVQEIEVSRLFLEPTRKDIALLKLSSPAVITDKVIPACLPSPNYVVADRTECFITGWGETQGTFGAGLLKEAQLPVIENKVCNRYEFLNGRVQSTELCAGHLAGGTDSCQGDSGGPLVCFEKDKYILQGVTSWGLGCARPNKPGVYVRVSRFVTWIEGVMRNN

[2] = target: T2, native plasminogen glycoform II (purified in-house from human plasma), P00747
T2 chain: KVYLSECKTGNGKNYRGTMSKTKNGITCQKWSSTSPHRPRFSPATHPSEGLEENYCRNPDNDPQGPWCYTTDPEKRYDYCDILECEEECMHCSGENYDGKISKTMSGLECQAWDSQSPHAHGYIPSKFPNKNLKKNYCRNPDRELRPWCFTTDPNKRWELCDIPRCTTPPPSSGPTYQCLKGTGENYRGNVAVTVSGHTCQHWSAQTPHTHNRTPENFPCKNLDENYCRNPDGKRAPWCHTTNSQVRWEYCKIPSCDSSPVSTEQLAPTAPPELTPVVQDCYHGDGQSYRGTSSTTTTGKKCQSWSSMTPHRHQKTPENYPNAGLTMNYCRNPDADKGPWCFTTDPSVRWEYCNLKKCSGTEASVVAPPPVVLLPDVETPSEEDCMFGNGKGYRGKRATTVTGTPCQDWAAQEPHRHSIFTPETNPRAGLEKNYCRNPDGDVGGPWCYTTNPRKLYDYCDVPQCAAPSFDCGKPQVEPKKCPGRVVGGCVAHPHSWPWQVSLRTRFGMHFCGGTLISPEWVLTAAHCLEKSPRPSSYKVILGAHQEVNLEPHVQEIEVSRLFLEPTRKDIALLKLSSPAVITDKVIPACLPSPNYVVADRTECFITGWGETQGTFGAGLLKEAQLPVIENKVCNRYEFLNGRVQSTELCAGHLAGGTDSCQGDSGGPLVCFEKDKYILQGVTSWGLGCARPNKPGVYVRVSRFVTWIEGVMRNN

recombinant plasminogen = target: T3, recombinant plasminogen
T3 chain: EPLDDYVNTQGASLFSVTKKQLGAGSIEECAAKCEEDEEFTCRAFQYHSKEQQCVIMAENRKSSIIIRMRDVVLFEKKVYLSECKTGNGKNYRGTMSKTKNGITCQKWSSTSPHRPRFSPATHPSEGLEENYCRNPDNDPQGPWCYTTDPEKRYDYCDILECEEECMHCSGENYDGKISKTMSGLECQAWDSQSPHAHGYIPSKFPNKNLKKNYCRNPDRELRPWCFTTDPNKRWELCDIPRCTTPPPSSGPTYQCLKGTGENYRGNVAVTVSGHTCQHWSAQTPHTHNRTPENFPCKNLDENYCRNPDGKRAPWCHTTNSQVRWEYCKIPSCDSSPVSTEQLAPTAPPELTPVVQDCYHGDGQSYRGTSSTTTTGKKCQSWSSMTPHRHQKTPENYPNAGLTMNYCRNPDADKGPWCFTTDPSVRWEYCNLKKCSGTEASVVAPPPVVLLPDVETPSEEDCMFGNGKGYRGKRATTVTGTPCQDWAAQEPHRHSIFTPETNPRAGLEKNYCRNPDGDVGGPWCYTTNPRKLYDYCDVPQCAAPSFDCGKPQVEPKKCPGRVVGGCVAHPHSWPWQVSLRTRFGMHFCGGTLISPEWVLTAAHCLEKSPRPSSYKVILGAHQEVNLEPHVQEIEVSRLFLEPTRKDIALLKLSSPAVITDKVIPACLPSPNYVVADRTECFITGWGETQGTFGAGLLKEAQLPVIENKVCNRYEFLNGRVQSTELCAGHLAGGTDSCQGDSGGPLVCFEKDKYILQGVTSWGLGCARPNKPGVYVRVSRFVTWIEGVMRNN

B1: tissue-type plasminogen activator (protein)
chain: SYQVICRDEKTQMIYQQHQSWLRPVLRSNRVEYCWCNSGRAQCHSVPVKSCSEPRCFNGGTCQQALYFSDFVCQCPEGFAGKCCEIDTRATCYEDQGISYRGTWSTAESGAECTNWNSSALAQKPYSGRRPDAIRLGLGNHNYCRNPDRDSKPWCYVFKAGKYSSEFCSTPACSEGNSDCYFGNGSAYRGTHSLTESGASCLPWNSMILIGKVYTAQNPSAQALGLGKHNYCRNPDGDAKPWCHVLKNRRLTWEYCDVPSCSTCGLRQYSQPQFRIKGGLFADIASHPWQAAIFAKHRRSPGERFLCGGILISSCWILSAAHCFQERFPPHHLTVILGRTYRVVPGEEEQKFEVEKYIVHKEFDDDTYDNDIALLQLKSDSSRCAQESSVVRTVCLPPADLQLPDWTECELSGYGKHEALSPFYSERLKEAHVRLYPSSRCTSQHLLNRTVTDNMLCAGDTRSGGPQANLHDACQGDSGGPLVCLNDGRMTLVGIISWGLGCGQKDVPGVYTKVTNYLDWIRDNMRP
Work on B1 yielded a Km (nM) of Plg activation by tPA [1] of 163 nM, a Vmax (nM/s) of Plg activation by tPA [1] of 3.06 nM/s and a Km (nM) of Plg activation by tPA [2] of 146 nM. It also gave a Vmax (nM/s) of Plg activation by tPA [2] of 1.67 nM/s, a Km (nM) of Plg activation by tPA (recombinant plasminogen) of 139 nM and a Vmax (nM/s) of Plg activation by tPA (recombinant plasminogen) of 3.47 nM/s. The “cleavage to plasmin, SDS-PAGE under reducing conditions” value (recombinant plasminogen) was “tPA-cleaved recombinant plasmin (rPlm) resulting from the cleavage of rPlg by tPA”.
